Test results reported in article PMC3595365 (Molecular cell, 2013).

Tests used:
His6-ubiquitin = His6-ubiquitin (UniProt P0CG48 1-76); test: BLI
His6-NEDD8 = His6-NEDD8 (UniProt Q15843 1-76); test: BLI
Sequence of His6-NEDD8 (Q15843 1-76): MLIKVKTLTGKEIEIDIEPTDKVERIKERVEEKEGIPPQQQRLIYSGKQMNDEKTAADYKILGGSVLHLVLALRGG

Kd (His6-ubiquitin): 17 ± 3 µM
Kd (His6-NEDD8): 14 ± 3 µM
Binder: RHKQEEQDRLLALQLQKEVDKEQM (domain or fragment, UniProt Q8IYW5 439-462, looked up) [GST-RNF168-MIU2 (439-462)]
